Assay results reported in patent US8420776 (US Dept. of Health and Human Services, dated 2013).

B7: yeast Ubc7p, in vitro translated and labelled with 35S-methionine (enzyme, UniProt Q02159 1-165, looked up)
chain: MSKTAQKRLLKELQQLIKDSPPGIVAGPKSENNIFIWDCLIQGPPDTPYADGVFNAKLEFPKDYPLSPPKLTFTPSILHPNIYPNGEVCISILHSPGDDPNMYELAEERWSPVQSVEKILLSVMSMLSEPNIESGANIDACILWRDNRPEFERQVKLSILKSLGF
modifications: 35S-methionine label
B8: GST fusion of the entire gp78 cytoplasmic tail (gp78C; residues 309-643 of SEQ ID NO:2) (other)
chain: IRRHKNYLRVVGNMEARFAVATPEELAVNNDDCAICWDSMQAARKLPCGHLFHNSCLRSWLEQDTSCPTCRMSLNIADNNRVREEHQGENLDENLVPVAAAEGRPRLNQHNHFFHFDGSRIASWLPSFSVEVMHTTNILGITQASNSQLNAMAHQIQEMFPQVPYHLVLQDLQLTRSVEITTDNILEGRIQVPFPTQRSDSIRPALNSPVERPSSDQEEGETSAQTERVPLDLSPRLEETLDFGEVEVEPSEVEDFEARGSRFSKSADERQRMLVQRKDELLQQARKRFLNKSSEDDAASESFLPLEGASSDPVTLRRRMLAAAAERRLQKQQTS
notes: also called gp78 cytoplasmic domain; not shown: glutathione S-transferase (GST) fusion partner, N-terminal (pGEX type vector)
B10: Ube2G2/MmUbc7, in vitro translated and labelled with 35S-methionine (enzyme)
chain: MAGTALKRLMAEYKQLTLNPPEGIVAGPMNEENFFEWEALIMGPEDTCFEFGVFPAILSFPLDYPLSPPKMRFTCEMFHPNIYPDGRVCISILHAPGDDPMGYESSAERWSPVQSVEKILLSVVSMLAEPNDESGANVDASKMWRDDREQFYKIAKQIVQKSLGL
modifications: 35S-methionine label
notes: Translated in wheat germ or rabbit reticulocyte lysate; also called in vitro translated Ube2G2

Tests used:
[1] = target: B10; assay: GST pull-down, E2 translated in wheat germ and labelled with 35S-Met, equal counts
[2] = target: B7; assay: GST pull-down, E2 in vitro translated in wheat germ
[3] = target: UbcH5B, in vitro translated and labelled with 35S-methionine (human, UniProt P62837 1-147); assay: GST pull-down, E2 translated in wheat germ and labelled with 35S-Met, equal counts
[4] = target: T1, GST fusion of the cytoplasmic domain of yeast Cue1p (Cue1p 24-203) (yeast, UniProt P38428 24-203); assay: GST pull-down, E2 in vitro translated in wheat germ
T1 construct: range 24-203; also called GST-Cue1p 24-203; not shown: glutathione S-transferase (GST) fusion partner, N-terminal (pGEX4T-1)
T1 sequence (looked up): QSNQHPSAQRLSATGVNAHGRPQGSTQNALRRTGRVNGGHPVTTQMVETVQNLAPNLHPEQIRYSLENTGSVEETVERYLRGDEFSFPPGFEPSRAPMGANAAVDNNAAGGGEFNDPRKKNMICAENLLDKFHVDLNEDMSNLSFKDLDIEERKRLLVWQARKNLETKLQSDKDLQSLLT

[5] = target: B8; assay: as above
[6] = target: T2, Myc-Ube2G2, co-expressed in HEK 293T cells (human (100% identical to mouse MmUbc7), UniProt P60604 1-165); assay: anti-Myc immunoprecipitation from co-transfected cells, anti-gp78 immunoblot
T2 construct: Plasmid described in Tiwari and Weissman, 2001; also called Myc-MmUbc7; myc-tagged MmUbc7/Ube2G2
T2 sequence: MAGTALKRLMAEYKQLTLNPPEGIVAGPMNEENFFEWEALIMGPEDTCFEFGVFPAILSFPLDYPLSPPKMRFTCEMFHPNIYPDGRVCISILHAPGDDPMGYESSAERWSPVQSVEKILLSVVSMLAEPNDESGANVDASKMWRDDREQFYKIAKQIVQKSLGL

[7] = target: T3, N-terminal GFP fusion of gp78 residues 574-611 (GFP-574-611) (human, UniProt P42212 1-238 = GFP); assay: co-immunoprecipitation with GFP fusion from HEK 293T cells
T3 construct: the vector encodes the enhanced variant; also called G2BD

[8] = target: T4, lysine 48-linked (K48) tetra-ubiquitin (UniProt P0CG48 1-76, four ubiquitins joined by lysine 48 isopeptide links); assay: GST pull-down, anti-ubiquitin immunoblot
T4 construct: the monomer is its first 76 residues

[9] = target: B8; assay: GST pull-down

UbcH5B, in vitro translated and labelled with 35S-methionine, sequence (P62837 whole entry, the tested form may be a part): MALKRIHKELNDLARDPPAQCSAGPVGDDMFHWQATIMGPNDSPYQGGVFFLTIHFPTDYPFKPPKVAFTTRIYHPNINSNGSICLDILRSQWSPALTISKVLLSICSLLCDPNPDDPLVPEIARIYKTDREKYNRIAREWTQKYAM

B1: GST fusion of the gp78 cytoplasmic tail beginning after the RING finger (residues 429-643 of SEQ ID NO:2) (other)
chain: IASWLPSFSVEVMHTTNILGITQASNSQLNAMAHQIQEMFPQVPYHLVLQDLQLTRSVEITTDNILEGRIQVPFPTQRSDSIRPALNSPVERPSSDQEEGETSAQTERVPLDLSPRLEETLDFGEVEVEPSEVEDFEARGSRFSKSADERQRMLVQRKDELLQQARKRFLNKSSEDDAASESFLPLEGASSDPVTLRRRMLAAAAERRLQKQQTS
notes: also called gp78CΔR; gp78CAR; not shown: GST carrier and the pGEX4T-1 linker (N-terminal)
[1]
  amount bound (% of input): ~10 % of input
[2]
  binding result: no binding

B2: GST-AO7 (92 to 259), the RING finger and surrounding regions of the E3 AO7 (other)
chain: QIHKISQALGHVAKEGLGTAMLYELIEKGKEILTDNNIPHGQCVICLYGFQEKEAFTKTPCYHYFHCHCLARYIQHMEQELTTQEQEQERQHVVTKQKAVGVQCPVCREPLVYDLASLKAAPEPQQPMELYQPSAESLRQQEELKLLYQRQQEKGGIIDLEAERNRYF
notes: range 92-259; also called A07; not shown: glutathione S-transferase (GST) fusion partner
[3]
  amount bound (% of input): ~10 % of input

B3: Ube2G1, in vitro translated and labelled with 35S-methionine (enzyme, rat, UniProt P62255 1-170, looked up)
chain: MTELQSALLLRRQLAELNKNPVEGFSAGLIDDNDLYRWEVLIIGPPDTLYEGGVFKAHLTFPKDYPLRPPKMKFITEIWHPNVDKNGDVCISILHEPGEDKYGYEKPEERWLPIHTVETIMISVISMLADPNGDSPANVDAAKEWREDRNGEFKRKVARCVRKSQETAFE
modifications: 35S-methionine label
notes: also called rat Ubc7 (Ube2g1)
[4]
  binding result: no binding
[5]
  binding result: no binding

B4: full length gp78 with both Cue domain mutations (gp78Cue-m1, 2) (enzyme)
chain: MPLLFLERFPWPSLRTYTGLSGLALLGTIISAYRALSQPEAGPGEPDQLTASLQPEPPAPARPSAGGPRARDVAQYLLSDSLFVWVLVNTACCVLMLVAKLIQCIVFGPLRVSERQHLKDKFWNFIFYKFIFIFGVLNVQTVEEVVMWCLWFAGLVFLHLMVQLCKDRFEYLSFSPTTPMSSHGRVLSLLVAMLLSCCGLAAVCSITGYTHGMHTLAFMAAESLLVTVRTAHVILRYVIHLWDLNHEGTWEGKGTYVYYTDFVMELTLLSLDLMHHIHMLLFGNIWLSMASLVIFMQLRYLFHEVQRRIRRHKNYLRVVGNMEARFAVATPEELAVNNDDCAICWDSMQAARKLPCGHLFHNSCLRSWLEQDTSCPTCRMSLNIADNNRVREEHQGENLDENLVPVAAAEGRPRLNQHNHFFHFDGSRIASWLPSFSVEVMHTTNILGITQASNSQLNAMAHQIQEGGRQVPYHLRLQVDQLTRSVEITTDNILEGRIQVPFPTQRSDSIRPALNSPVERPSSDQEEGETSAQTERVPLDLSPRLEETLDFGEVEVEPSEVEDFEARGSRFSKSADERQRMLVQRKDELLQQARKRFLNKSSEDDAASESFLPLEGASSDPVTLRRRMLAAAAERRLQKQQTS
notes: Full length, expressed in cells; also called Cue12M
[6]
  binding result: binds

B5: full length gp78 with the E2-m2 mutation (gp78E2-m2) (enzyme)
chain: MPLLFLERFPWPSLRTYTGLSGLALLGTIISAYRALSQPEAGPGEPDQLTASLQPEPPAPARPSAGGPRARDVAQYLLSDSLFVWVLVNTACCVLMLVAKLIQCIVFGPLRVSERQHLKDKFWNFIFYKFIFIFGVLNVQTVEEVVMWCLWFAGLVFLHLMVQLCKDRFEYLSFSPTTPMSSHGRVLSLLVAMLLSCCGLAAVCSITGYTHGMHTLAFMAAESLLVTVRTAHVILRYVIHLWDLNHEGTWEGKGTYVYYTDFVMELTLLSLDLMHHIHMLLFGNIWLSMASLVIFMQLRYLFHEVQRRIRRHKNYLRVVGNMEARFAVATPEELAVNNDDCAICWDSMQAARKLPCGHLFHNSCLRSWLEQDTSCPTCRMSLNIADNNRVREEHQGENLDENLVPVAAAEGRPRLNQHNHFFHFDGSRIASWLPSFSVEVMHTTNILGITQASNSQLNAMAHQIQEMFPQVPYHLVLQDLQLTRSVEITTDNILEGRIQVPFPTQRSDSIRPALNSPVERPSSDQEEGETSAQTERVPLDLSPRLEETLDFGEVEVEPSEVEDFEARGSRFSKSADERAAAGGGRKDELLQQARKRFLNKSSEDDAASESFLPLEGASSDPVTLRRRMLAAAAERRLQKQQTS
notes: Full length, expressed in cells; also called ΔB in the context of the full length gp78
[6]
  binding result: no binding

B6: endogenous Ube2g1 of HEK 293T cells (enzyme, human, UniProt P62253 2-170, looked up)
chain: TELQSALLLRRQLAELNKNPVEGFSAGLIDDNDLYRWEVLIIGPPDTLYEGGVFKAHLTFPKDYPLRPPKMKFITEIWHPNVDKNGDVCISILHEPGEDKYGYEKPEERWLPIHTVETIMISVISMLADPNGDSPANVDAAKEWREDRNGEFKRKVARCVRKSQETAFE
[7]
  binding result: no binding

## B7
[4]
  binding result: binds
[5]
  binding result: no binding

## B8
[1]
  amount bound (% of input): ~10 % of input

B9: GST-gp78Cuem2: gp78 C-terminal region with VLQDL to RLQVD mutation of residues 476 to 480 (other)
chain: IRRHKNYLRVVGNMEARFAVATPEELAVNNDDCAICWDSMQAARKLPCGHLFHNSCLRSWLEQDTSCPTCRMSLNIADNNRVREEHQGENLDENLVPVAAAEGRPRLNQHNHFFHFDGSRIASWLPSFSVEVMHTTNILGITQASNSQLNAMAHQIQEMFPQVPYHLRLQVDQLTRSVEITTDNILEGRIQVPFPTQRSDSIRPALNSPVERPSSDQEEGETSAQTERVPLDLSPRLEETLDFGEVEVEPSEVEDFEARGSRFSKSADERQRMLVQRKDELLQQARKRFLNKSSEDDAASESFLPLEGASSDPVTLRRRMLAAAAERRLQKQQTS
notes: not shown: glutathione S-transferase (GST) fusion partner, N-terminal (pGEX type vector)
[8]
  binding result: no binding (tested: 1 ug K48 tetra-ubiquitin)

## B10
[9]
  binding result: binds

B11: GST-gp78CCue-m1, 2: gp78 C-terminal region with both sets of Cue domain mutations (other)
chain: IRRHKNYLRVVGNMEARFAVATPEELAVNNDDCAICWDSMQAARKLPCGHLFHNSCLRSWLEQDTSCPTCRMSLNIADNNRVREEHQGENLDENLVPVAAAEGRPRLNQHNHFFHFDGSRIASWLPSFSVEVMHTTNILGITQASNSQLNAMAHQIQEGGRQVPYHLRLQVDQLTRSVEITTDNILEGRIQVPFPTQRSDSIRPALNSPVERPSSDQEEGETSAQTERVPLDLSPRLEETLDFGEVEVEPSEVEDFEARGSRFSKSADERQRMLVQRKDELLQQARKRFLNKSSEDDAASESFLPLEGASSDPVTLRRRMLAAAAERRLQKQQTS
notes: as for B9
[8]
  binding result: no binding (tested: 1 ug K48 tetra-ubiquitin)

B12: GST-gp78CCue-m1: complete C-terminal region of gp78 with MFP to GGR mutation of residues 467 to 469 (other)
chain: IRRHKNYLRVVGNMEARFAVATPEELAVNNDDCAICWDSMQAARKLPCGHLFHNSCLRSWLEQDTSCPTCRMSLNIADNNRVREEHQGENLDENLVPVAAAEGRPRLNQHNHFFHFDGSRIASWLPSFSVEVMHTTNILGITQASNSQLNAMAHQIQEGGRQVPYHLVLQDLQLTRSVEITTDNILEGRIQVPFPTQRSDSIRPALNSPVERPSSDQEEGETSAQTERVPLDLSPRLEETLDFGEVEVEPSEVEDFEARGSRFSKSADERQRMLVQRKDELLQQARKRFLNKSSEDDAASESFLPLEGASSDPVTLRRRMLAAAAERRLQKQQTS
notes: as for B9
[8]
  binding result: no binding (tested: 1 ug K48 tetra-ubiquitin)
